Data as given in the supplement of paper PMC6755084.

B1: F1*; the commonest letter at each place (parent)
chain: GAGACCGCAACTGAAAAGTTGTTATCACTTGTCGTAAGACACTTTGGATGGGTTGAAGTTCTGCACGTAGAAGCAAAAGGC
B2: minF1; a variant is named by its letters at N, in order (parent)
chain: GAGACCGCAACTGAAAAGTTGTTNNNNAANNNNGGNTNNATTTCTGCACGTAGAAGCAAAAGGC

Variants of: B1
Assay: fraction ligated after 30 min (ligated reads / total reads); higher = more ligase activity
Settings: with F1*sub RNA substrate (template-directed ligation), 42 °C
How it was run: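 Ribozyme variants were transcribed with T7 from PCR-amplified oligo-pool templates and gel-purified. Ligated and unligated bands, separated on gel, were reverse transcribed with barcoded primers and sequenced on a MiSeq, with core bases filtered at quality ≥20. Fraction ligated per variant was computed as ligated reads divided by total reads.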

| Variant | fraction ligated |
| --- | --- |
| A57T | 0.844 |
| A57C | 0.814 |
| A57G | 0.822 |
| G58A | 0.851 |
| G58C | 0.767 |
| G58T | 0.834 |
| A56T A57G | 0.217 |
| A56T A57T | 0.454 |
| unchanged | 0.826 |

Variants of: B2
Assay: fraction ligated after 30 min (ligated reads / total reads); higher = more ligase activity
Settings: with F1*subA RNA substrate (template-directed ligation), 42 °C
Protocol: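 Chip-synthesised pool of minF1 ligase ribozyme variants (single and double substitutions, single to quadruple deletions, bulge and P2 designed variants) was transcribed with T7 and reacted as a pool with excess substrate F1*subA for 30 min at 42 C in 50 mM EPPS pH 8.5, 25 mM MgCl2. Ligated and unligated RNAs were separated by PAGE, barcoded by RT and deep sequenced; fraction ligated = ligated reads / total reads, relative activity = FL / FL of wild-type minF1 (0.76); sequencing FL correlated with PAGE (R2 = 0.98). Sequences are the DNA template of the ribozyme.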

| Variant | fraction ligated |
| --- | --- |
| TAGAGGTGTGA T23A | 0.00196 |
| AAGAGATGTGA A28T A29G | 0.00397 |
| TAAAGATGTGA T23A A29T | 0.00358 |
| TAAAGATGTGA T23A A29G | 0.00271 |
| CAGAGATGTGA | 0.00372 |
| CAGAGATGTGA T23A | 0.00241 |
| CAGAGATGTGA A29T | 0.00205 |
| CAGAGATGTGA A29G | 0.00315 |
| CAGATGAGTGA | 0.00146 |
| CAGAGGAGTGA A29T | 0 |
| TAGATGATTGA | 0.00145 |
| CAAAGGATTGA A29T | 0.0034 |
| AAGATATGTGA | 0.00183 |
| CAGAGGAGTGA T23A | 0.00148 |
| TAGATGAGTGA | 0.00265 |
| TAGATGATGTG | 0.0051 |
| TAGATGATGTA | 0.00158 |
| TAGAGATGTGA T23A A29G | 0.00131 |
| TAGAGATGTGA T23A A29T | 0.00334 |
| TAGATGGAGTA T23A | 0.000612 |
| TAAAGATGTGA A28T A29G | 0.00323 |
| AAGATGGAGTG G34T | 0.00776 |
| TAGATGATGTA T23A | 0.00397 |

| Variant | fraction ligated |
| --- | --- |
| CAGAGGATGTA A29T | 0.00385 |
| CAAAGGTGTGA A29T | 0.00133 |
| AAAAGGATGTG A29T | 0.00334 |
| AAGATGATGTG | 0.00397 |
| AAGATGATGTA | 0.00102 |
| TAGAGGTGTGA | 0.00375 |
| TAGAGGATGTG T23A A29T | 0.00945 |
| CAGATGAGTGA T23A | 0.00277 |
| AAGAGGAGTGA A29T | 0.00209 |
| AAAAGATGTGA A28T A29G | 0.00466 |
| TAGATATGTGA T23A | 0.00255 |
| TAGAGGATGTA T23A A29T | 0.00136 |
| AAGAGGATGTG A29T | 0.00669 |
| TAGAGATGTGA A28T A29G | 0.00491 |
| GAAAGATGTGA T23C A28T A29G | 0.00212 |
| TAAAGGATTGA T23A A29T | 0.00317 |
| GAAAGATGTGA T23A A28T A29G | 0.00194 |
| CAGAGGATTGA T23A | 0.00223 |
| CAGAGGATGTG T23A A29T | 0.0132 |
| CAGAGGATGTA T23A | 0.00339 |
| CAGAGGATGTG A29T | 0.0108 |
| TAGAGGAGTGA A29T | 0.00156 |
| TAGAGGATTGA | 0.00125 |

| Variant | fraction ligated |
| --- | --- |
| CAGAGGATGTA | 0.000794 |
| CAGAGGATGTG | 0.00526 |
| CAGATGGAGTA G34T | 0.00644 |
| TAAAGGAGTGA T23A A29T | 0.00645 |
| AAGAGGTGTGA | 0.00286 |
| TAAAGGAGTGA A29T | 0.00185 |
| TAGATGATTGA T23A | 0.00257 |
| AAGAGGATTGA | 0.00146 |
| AAAAGATGTGA T23C A28T A29G | 0.00238 |
| CAGAGGATGTG T23A | 0.00549 |
| AAGATGGAGTA | 0.00181 |
| AAGATGGAGTG | 0.00495 |
| CAGAGATGTGA T23A A28T A29G | 0.00252 |
| CAGATGGAGTA T23A G34T | 0.00843 |
| CAAAGGTGTGA T23A A29T | 0.00303 |
| CAGAGGAGTGA | 0.0058 |
| TAGAGGATGTA T23A | 0.00339 |
| TAGATATGTGA | 0.00128 |
| TAGAGGATGTG A29T | 0.0045 |
| CAGATGATTGA | 0.0023 |
| TAAAGATGTGA T23A A28T A29G | 0.00461 |
| TAAAGGATGTA T23A A29T | 0.000932 |
| TAAAGGATGTA A29T | 0.00265 |

| Variant | fraction ligated |
| --- | --- |
| TAAAGGTGTGA A29T | 0.0019 |
| TAGAGGATGTG | 0.00216 |
| TAGAGGATGTA | 0.000988 |
| TAGATGGAGTG G34T | 0.0121 |
| TAGAGGATTGA T23A A29T | 0.00233 |
| AAAAGGTGTGA A29T | 0.00306 |
| CAGAGGATGTA T23A A29T | 0.00576 |
| TAGAGGAGTGA T23A A29T | 0.00307 |
| CAAAGATGTGA A28T A29G | 0.00352 |
| CAGATGGAGTG G34T | 0.0137 |
| CAAAGATGTGA T23A A28T A29G | 0.0035 |
| TAGAGGAGTGA | 0.00669 |
| CAAAGGATGTA A29T | 0.00185 |
| AAGAGGATGTA A29T | 0.00173 |
| TAAAGGATTGA A29T | 0.00151 |
| CAGAGGTGTGA | 0.00486 |
| AAAAGGATGTA A29T | 0.00276 |
| CAAAGGATGTG A29T | 0.0079 |
| TAGAGATGTGA T23A | 0.00319 |
| CAAAGATGTGA A29T | 0.00371 |
| CAAAGATGTGA A29G | 0.00439 |
| CAGATGGAGTG T23A | 0.00354 |
| TAGAGGATGTG T23A | 0.00675 |

| Variant | fraction ligated |
| --- | --- |
| CAGATATGTGA | 0.00323 |
| AAGATGATTGA | 0.0028 |
| CAGAGGAGTGA T23A A29T | 0.000641 |
| CAAAGATGTGA T23A A29G | 0.00234 |
| CAAAGATGTGA T23A A29T | 0.00168 |
| TAGAGGATTGA T23A | 0.00191 |
| TAGAGGTGTGA T23A A29T | 0.00331 |
| CAGAGGTGTGA T23A A29T | 0.00102 |
| TAGATGGAGTA G34T | 0.00584 |
| TAGAGGATTGA A29T | 0.00809 |
| TAGAGGATGTA A29T | 0.00262 |
| AAGAGATGTGA | 0.00157 |
| TAGAGATGTGA | 0.00183 |
| CAAAGGAGTGA A29T | 0.00216 |
| CAAAGGATGTG T23A A29T | 0.00761 |
| TAGAGGTGTGA A29T | 0.00319 |
| CAGATGATTGA T23A | 0.00168 |
| CAGAGGATTGA A29T | 0.0052 |
| CAAAGGATGTA T23A A29T | 0.000678 |
| TAGATGAGTGA T23A | 0.00274 |
| TAGATGGAGTG T23A | 0.00424 |
| TAGATGATGTG T23A | 0.00386 |
| TAGAGATGTGA A29G | 0.00391 |

| Variant | fraction ligated |
| --- | --- |
| TAGAGATGTGA A29T | 0.00374 |
| CAGATGATGTA | 0.00303 |
| CAGATGATGTG | 0.00641 |
| TAGAGATGTGA T23A A28T A29G | 0.00684 |
| CAGAGATGTGA A28T A29G | 0.00451 |
| CAAAGGATTGA T23A A29T | 0.00487 |
| CAGAGGTGTGA T23A | 0.00265 |
| CAGAGGTGTGA A29T | 0.00368 |
| CAAAGGAGTGA T23A A29T | 0.00224 |
| CAGATGATGTA T23A | 0.00233 |
| TAAAGATGTGA A29G | 0.00158 |
| TAAAGATGTGA A29T | 0.00224 |
| AAGAGGATTGA A29T | 0.007 |
| CAGATGGAGTA T23A | 0.00106 |
| AAAAGATGTGA A29T | 0.00419 |
| AAAAGATGTGA A29G | 0.00274 |
| CAGAGATGTGA T23A A29T | 0.00283 |
| CAGAGATGTGA T23A A29G | 0.00348 |
| AAGAGGATGTA | 0.000999 |
| AAGAGGATGTG | 0.00366 |
| AAAAGGATTGA A29T | 0.00197 |
| AAGATGAGTGA | 0.00469 |
| AAAAGGAGTGA A29T | 0.00356 |

| Variant | fraction ligated |
| --- | --- |
| TAGAGGAGTGA T23A | 0.0026 |
| AAGAGGTGTGA A29T | 0.00145 |
| CAGATGATGTG T23A | 0.00584 |
| CAGATGGAGTA | 0.00249 |
| CAGATGGAGTG | 0.00678 |
| AAGATGGAGTA G34T | 0.00267 |
| TAGATGGAGTA T23A G34T | 0.0029 |
| AAGAGGAGTGA | 0.00337 |
| CAGATATGTGA T23A | 0.00265 |
| CAGAGGATTGA | 0.00276 |
| CAGAGGATTGA T23A A29T | 0.00274 |
| TAAAGGTGTGA T23A A29T | 0.00275 |
| TAAAGGATGTG T23A A29T | 0.00674 |
| GAAAGATGTGA A28T A29G | 0.00247 |
| TAGATGGAGTG | 0.00279 |
| TAGATGGAGTA | 0.00154 |
| AAAAGATGTGA T23A A28T A29G | 0.00631 |
| TAAAGGATGTG A29T | 0.00445 |
| AAGAGATGTGA A29G | 0.00367 |
| AAGAGATGTGA A29T | 0.00363 |
